Results on one substance are retold here after patent US20220135682A1.

In assay [1] the target is Human ICOS (human) (UniProt Q9Y6W8). In words: in vivo target engagement, flow cytometry on human peripheral blood CD4+ T cells, 0.1 mg/kg, Day 42. (Flow cytometry measures light scatter and fluorescence of single cells or particles in a stream.)
For assay [2] the target is unchanged. In words: in vivo target engagement, flow cytometry on human peripheral blood CD4+ T cells, 0.1 mg/kg, Day 42, average of three subjects.
Assay [3] has the same target. In words: in vivo target engagement, flow cytometry on human peripheral blood CD4+ T cells, average of three subjects after first i.v. dose of 0.1 mg/kg.

Sequence of Human ICOS (human) (Q9Y6W8 21-199): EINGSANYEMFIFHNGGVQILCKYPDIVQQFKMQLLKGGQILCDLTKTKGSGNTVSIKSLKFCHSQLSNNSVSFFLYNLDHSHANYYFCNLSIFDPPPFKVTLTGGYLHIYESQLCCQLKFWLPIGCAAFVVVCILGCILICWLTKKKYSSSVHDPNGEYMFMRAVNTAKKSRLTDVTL

For the substance JTX-2011 (antibody), the target engagement is less than 40% with Human ICOS (human) [1], 10% in the assay with Human ICOS (human) [2] and 100% in the assay with Human ICOS (human) [3].
